The assay deals with proteasome with HTBH-tagged 20S subunit PSMB2 (human (expressed in HEK293) | human (endogenous in HEK293T)) (UniProt P49721). Description: affinity purification with mass spectrometry.

Bounds are passed on as bounds.

Chain of UniProt P49721 (P49721 whole entry, looked up, tested part not stated): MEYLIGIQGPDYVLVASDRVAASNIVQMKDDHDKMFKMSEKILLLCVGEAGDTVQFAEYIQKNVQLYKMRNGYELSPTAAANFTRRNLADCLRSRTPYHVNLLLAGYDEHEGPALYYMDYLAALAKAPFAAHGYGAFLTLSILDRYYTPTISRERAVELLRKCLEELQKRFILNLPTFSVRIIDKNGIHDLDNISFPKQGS

B1: USP15 (endogenous, HEK293T or HeLa cells) (enzyme)
chain: MAEGGAADLDTQRSDIATLLKTSLRKGDTWYLVDSRWFKQWKKYVGFDSWDKYQMGDQNVYPGPIDNSGLLKDGDAQSLKEHLIDELDYILLPTEGWNKLVSWYTLMEGQEPIARKVVEQGMFVKHCKVEVYLTELKLCENGNMNNVVTRRFSKADTIDTIEKEIRKIFSIPDEKETRLWNKYMSNTFEPLNKPDSTIQDAGLYQGQVLVIEQKNEDGTWPRGPSTPKSPGASNFSTLPKISPSSLSNNYNNMNNRNVKNSNYCLPSYTAYKNYDYSEPGRNNEQPGLCGLSNLGNTCFMNSAIQCLSNTPPLTEYFLNDKYQEELNFDNPLGMRGEIAKSYAELIKQMWSGKFSYVTPRAFKTQVGRFAPQFSGYQQQDCQELLAFLLDGLHEDLNRIRKKPYIQLKDADGRPDKVVAEEAWENHLKRNDSIIVDIFHGLFKSTLVCPECAKISVTFDPFCYLTLPLPMKKERTLEVYLVRMDPLTKPMQYKVVVPKIGNILDLCTALSALSGIPADKMIVTDIYNHRFHRIFAMDENLSSIMERDDIYVFEININRTEDTEHVIIPVCLREKFRHSSYTHHTGSSLFGQPFLMAVPRNNTEDKLYNLLLLRMCRYVKISTETEETEGSLHCCKDQNINGNGPNGIHEEGSPSEMETDEPDDESSQDQELPSENENSQSEDSVGGDNDSENGLCTEDTCKGQLTGHKKRLFTFQFNNLGNTDINYIKDDTRHIRFDDRQLRLDERSFLALDWDPDLKKRYFDENAAEDFEKHESVEYKPPKKPFVKLKDCIELFTTKEKLGAEDPWYCPNCKEHQQATKKLDLWSLPPVLVVHLKRFSYSRYMRDKLDTLVDFPINDLDMSEFLINPNAGPCRYNLIAVSNHYGGMGGGHYTAFAKNKDDGKWYYFDDSSVSTASEDQIVSKAAYVLFYQRQDTFSGTGFFPLDRETKGASAATGIPLESDEDSNDNDNDIENENCMHTN
B1 displayed a fold change of USP15 content on proteasomes, MG132-treated over untreated cells of more than 4 fold.

Values taken from paper doi:10.1101/2025.08.13.670075.
